# Molecular target: T1, FepA overexpressed from pBAD/Myc-HisB (E. coli, UniProt P05825 23-746)
# T1 construct: FepA, outer membrane ferric enterobactin transporter of E. coli; source: E. coli BW25113 ΔFepA (JW5086-3) or BL21(DE3), pBAD/Myc-HisB, overexpressed; on live cells, or in a detergent-extracted OM protein fraction
# T1 sequence: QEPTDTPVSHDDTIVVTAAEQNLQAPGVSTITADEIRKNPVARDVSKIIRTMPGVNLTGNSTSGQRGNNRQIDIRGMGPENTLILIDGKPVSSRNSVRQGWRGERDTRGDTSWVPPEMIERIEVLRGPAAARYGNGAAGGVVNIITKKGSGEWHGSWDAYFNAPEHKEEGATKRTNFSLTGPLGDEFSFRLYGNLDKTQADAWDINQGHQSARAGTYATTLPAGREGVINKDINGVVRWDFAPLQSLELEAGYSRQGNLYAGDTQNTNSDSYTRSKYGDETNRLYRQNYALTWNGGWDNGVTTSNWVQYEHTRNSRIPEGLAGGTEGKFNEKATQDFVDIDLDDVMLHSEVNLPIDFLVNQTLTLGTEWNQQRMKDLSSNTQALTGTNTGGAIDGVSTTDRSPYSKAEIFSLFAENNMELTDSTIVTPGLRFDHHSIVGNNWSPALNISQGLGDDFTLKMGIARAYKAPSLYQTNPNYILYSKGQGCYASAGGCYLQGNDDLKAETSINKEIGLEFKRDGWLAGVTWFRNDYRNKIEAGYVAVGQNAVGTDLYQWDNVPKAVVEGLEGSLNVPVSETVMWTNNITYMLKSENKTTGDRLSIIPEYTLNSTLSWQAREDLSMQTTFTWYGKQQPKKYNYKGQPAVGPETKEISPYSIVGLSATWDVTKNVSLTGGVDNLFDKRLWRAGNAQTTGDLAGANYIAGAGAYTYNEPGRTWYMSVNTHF
# Assay: native MS; 60 mg ColB-RT added to a 5-liter culture of BW25113(ΔFepA) cells overexpressing FepA; complex detergent extracted, purified by nickel affinity and size exclusion chromatography; 100 mM ammonium acetate, 1% β-OG, pH 6.9
# Details: one partner purified
binder,measurement,value
"ColB-RT (341 aa) (domain or fragment, not shown: His6, C-terminal, kept) MSDNEGSVPTEGIDYGDTMVVWPSTGRIPGGDVKPGGSSGLAPSMPPGWGDYSPQGIALVQSVLFPGIIRRIILDKELEEGDWSGWSVSVHSPWGNEKVSAARTVLENGLRGGLPEPSRPAAVSFARLEPASGNEQKIIRLMVTQQLEQVTDIPASQLPAAGNNVPVKYRLTDLMQNGTQYMAIIGGIPMTVPVVDAVPVPDRSRPGTNIKDVYSAPVSPNLPDLVLSVGQMNTPVRSNPEIQEDGVISETGNYVEAGYTMSSNNHDVIVRFPEGSGVSPLYISAVEILDSNSLSQRQEAENNAKDDFRVKKEQENDEKTVLTKTSEVIISVGDKVGEYLG",stoichiometry N,1

# From paper PMC8546555, “Colicin-Mediated Transport of DNA through the Iron Transporter FepA” (mBio, 2021)
